PMC7857409 (Science (New York, N.y.), 2020)

Target: SARS-CoV-2 Spike receptor binding domain (RBD) (SARS-CoV-2, ancestral (Wuhan-Hu-1) …, UniProt P0DTC2)
Assay: SPR
Details: both partners purified

B1: nanobody Nb6 (class I synthetic nanobody) (VHH)
VHH: QVQLVESGGGLVQAGGSLRLSCAASGIIFGRNAMGWYRQAPGKERELVAGITRRGSITYYADSVKGRFTISRDNAKNTVYLQMNSLKPEDTAVYYCAADPASPAPGDYWGQGTQVTVSS
- Kd: 41 nM
